In the nanobody polyreactivity screen of Harvey et al. (2022):

Test: yeast display, Sf9 membrane polyspecificity reagent, FACS + sequencing; frameworks hold sequencing errors
Outline: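 Polyreactivity labels are assigned by the sorting gate from which each nanobody was recovered. The gates were low and high (top ~1%), set on anti-HA fluorescence for expression and streptavidin fluorescence for reagent binding. Before sorting, galactose-induced (36–48 hours) yeast display cells were stained for 1 hour at 4 °C with 10% biotinylated, detergent-solubilized Sf9 membrane reagent.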

Sequence | polyreactivity (PSR sort gate)
QVQLVESGGGLVQAGGSLRLSCAASGRILVHNAMGWYRQAPGKERELVAAITWSGGSTYYADSVKGRFTISRDNAKNTFYLQMNSLKPEDTAVYYCAAEQWRYDGSFTGYGYWGQGTQVTVSS | low polyreactivity
QVQLVESGGGLVQAGGSLRLSCAASGRILVKNTMGWYRQAPGKERELVAAITSAGNTYYADSVKGRFTITRDNAKNSVYFQMNSLTPEATAVYYCAARNRTFFQPTYYYWGQGTQVTVSS | high polyreactivity
QVQLVESGGGLVQAGGSLRLSCAASGRILVSYAMGWYRQAPGKERELVAAISRSGGSTYYADSVKGRFTISRDNAKNSVYLQMNSLKPEDSAVYYCNVYRFSRYDYWGQGTQVTVSS | high polyreactivity
QVQLVESGGGLVQAGGSLRLSCAASGRILWAYAMGWYRQAPGKEREFVAAISWSTGSTYYADSVKGRFTISRDNAKNTVNIQLNSLQPDDTAVYYCAAQLAKTIRGRGYNSWGQGTQVTVSS | low polyreactivity
QVQLVESGGGLVQAGGSLRLSCAASGRILYHYAMGWYRQAPGKERELVAAITFSGDTTYYADSVKGRFTISRDNAKNTVYLQMNSLKPEDTAVYYCNTDYYWNYVSRLYDYWGQGTQVTVSS | high polyreactivity
QVQLVESGGGLVQAGGSLRLSCAASGRILYPYAMGWYRQAPGKERELVAAISSRSANTYYADSVKGRFTISRDNAKNTVYLQMNSLKPEDTAVYYCAARSLGLGFGHWGQGTQVTVSS | high polyreactivity
QVQLVESGGGLVQAGGSLRLSCAASGRILYRYVMGRYRQAPGKERELVAGISWSGGSTYYADSVKGRFTISSDTAKNTVYLQMNSLKPEVTAVYYCASTFRTYAPRPYQGDYWGQGTQVTVSS | low polyreactivity
QVQLVESGGGLVQAGGSLRLSCAASGRILYSYAMGWYRQEPGQEREFVAAIRRSGGSTYYADSVKGRFTISRDNAQNTVYLQMNSLKPEETAVDYCAAGRRSSGSYDYWGQGTQVTVSS | high polyreactivity
QVQLVESGGGLVQAGGSLRLSCAASGRILYVNAMGWSRQAPGKERELVAAISWRGGRTYYADSVKGRFTISRDTAKNTVYLQMNSLKPEDTAVYYCAARARGGYQRDYWGQGTQVTVSS | high polyreactivity
QVQLVESGGGLVQAGGSLRLSCAASGRILYYYAMGWSRQAPGKERELVAGITTDDSTNYADSVKGRFTISRDNAKNTVYLQMNSLKPEDTAVYYCAAKYVHGEYDYWGQGTQVTVSS | low polyreactivity
QVQLVESGGGLVQAGGSLRLSCAASGRILYYYAMGWYRQAPGKERELVAAITWGGGSTYYADSVKGRFTISRDNAKKSVYLQMNSLTPEETAVYYCNRTFRSRLPTSRGYEYWGQGTQVTVSS | low polyreactivity
QVQLVESGGGLVQAGGSLRLSCAASGRIRYAMGWYRQAPGKERELVAGIRWSGTSTYYADSVKGRFTISRDNAKNTVYLQMNSLKPEDTAVYYCNAKAQSRYVRYGYWGQGTQVSVSS | high polyreactivity
QVQLVESGGGLVQAGGSLRLSCAASGRISDFYAMGWNRQAPGKEREFVAAMSWSGGSTSYADSVKGRFTISRDNAKNTVYLQMNSLKPEDTSVYYCSAKGSRGNSAWYGYWGQGTQVTVSS | high polyreactivity
QVQLVESGGGLVQAGGSLRLSCAASGRISDRNAMGWYRQAPGKERELVATIRSGGSTNYADSVKGRFTISPDNAMNTVYLQMNSLKPEDTAVYYCATAKLTWRSQGLDYWGQGTQVTVSS | low polyreactivity
QVQLVESGGGLVQAGGSLRLSCAASGRISGINVMGWYRQAPGKERELVAAISRSGARTYYADSVKGRFTISRDNAKNTVYLQMNSLKPEDTAVYYCNAANLKYPKYVQGDYWGQGTQVTVSS | high polyreactivity
QVQLVESGGGLVQAGGSLRLSCAASGRISHYNAMGWYRQAPGKERELVAAISSRGGSTYYADSVKGRFTISRDIAKNTVYLQMNSLKPEDTAVYYCADTAGYWGQGTQVTVSS | high polyreactivity

Sequence | polyreactivity (PSR sort gate)
QVQLVESGGGLVQAGGSLRLSCAASGRISIWYDMGWYRQAPGKERELVASITSGGSTYADSVKGRFTISRDNAKNTVYLQMNSLKPEDTAVYYCAADEAPYGTSEQRHSRFSHWGQGTQVTVSS | low polyreactivity
QVQLVESGGGLVQAGGSLRLSCAASGRISLRILWDGIDRRLGKKGSWLPLLTNTGSTNYADSVKGRFTISRDNAKNTVYLQMNSLKPEDTAVYDCNADPTGGSSYPAYFEYDYWGQGTQVTVSS | low polyreactivity
QVQLVESGGGLVQAGGSLRLSCAASGRISLSNAMGWYKQAPGKEREFVAAITKRSDRTYYADSVKGRFTISRDNAKNTVYLQMNSLKPEDTAVYYCAAKPLFGTRDDYWGQGTQVTVSS | low polyreactivity
QVQLVESGGGLVQAGGSLRLSCAASGRISPSYAMGWYRHATGKERELVAAISRGGSTSYADSVKGLFTISRDNAKNTVYLQMNSLKPEDTAVYYCSTRGPRYRNYYWGQGTQVTVSS | high polyreactivity
QVQLVESGGGLVQAGGSLRLSCAASGRISRLNAMGWYRQAPGKERELVATISGRGGGTYYADSVKGRFTISRDNAKNTVYLQMNSLKPEDTAVYYCAVRGLYQGRRRYSSEYDYWGQGTQVTVSS | high polyreactivity
QVQLVESGGGLVQAGGSLRLSCAASGRISRTNAMGWYRQAPGKERELVATITRGGNTNYADSVKGRFTISRDNAKNTVYLPMNSLKPEDTAVYYCAALGRYLRTYRGYVWQFDSWGQGTKVTVSS | high polyreactivity
QVQLVESGGGLVQAGGSLRLSCAASGRISRVYAMGWYRQAPGKERELVASITGRGGSTYYADSVKGRFTISRDNAKNTVYLQMNSLKPEDTAVYYCAALIDVITGQYDYWGQGTQVTVSS | high polyreactivity
QVQLVESGGGLVQAGGSLRLSCAASGRISSSYAMGWYRQAPGKERELVAAIDNSDDTTYYADSVKGRFTISLDNAKNTVYLQMNSLKPEDTAVYSCATLVYSSELGYWGQGTQVTVSS | high polyreactivity
QVQLVESGGGLVQAGGSLRLSCAASGRISSSYDMGWYIQAPAKDRELVAAISSGSSTYYAHSVKVRFTISRDNAKNTVYLQMNSLKREDTAVYYCAKLHYAHYWGQGTQVTVSS | low polyreactivity
QVQLVESGGGLVQAGGSLRLSCAASGRISTRYTMGWYRQAPGKERELVAAISGNAGRTYYADSVKGRFTISRDNAKNTVYVQMNSLKPADTAVYYCARESGYRAYEIQFYYWGQGTQVTVSS | high polyreactivity
QVQLVESGGGLVQAGGSLRLSCAASGRISTTYSMGWYRPAPGKERELVAAITIGGGTNYADSVKGRFTISRDNAKNTVYLQMNSLKPEDTAVFYCNADRTASFAYDYWGQGTQVTVSS | low polyreactivity
QVQLVESGGGLVQAGGSLRLSCAASGRISVKYAMGWYRQAPGKERELVAANDSSGGSTSYADSVKGRFTISRDNAKNTVYLQMNSLKPEDTAVYYCADDTWYRAGYFVFYYDYWGQGTQVTVSS | low polyreactivity
QVQLVESGGGLVQAGGSLRLSCAASGRISVRNTMGWYRQAPGKERELVARISSTGGSTYYADSVKGRFTISRDNAKNTVYLQMNSLKPEDTAVYYCNAKYYTRYPYLGKGDYWGQGTQVTVSS | high polyreactivity
QVQLVESGGGLVQAGGSLRLSCAASGRISVTYAMGWYRQAPGKERELVAAINTSGGTTYYADSVKGRFTISRDNAKNTVYLQMNSLKPEDTAVYYCNAVFYGGVGDNDYWGQGTQVTVSS | high polyreactivity
QVQLVESGGGLVQAGGSLRLSCAASGRISWGYAMGWYRPAPGKERELVAVINFNGGRTYYADSVKGRFTISRDNAKNTVYLQMNSLKPEDTAVYYCAADSGYEYDYWGQGTQVTVSS | low polyreactivity
QVQLVESGGGLVQAGGSLRLSCAASGRISYLYTMGWYRQAPGKERELVAAIRWRDGSTYYADSVKGRFTISRDNAKNTVYLQMNSLKPEDTAVYYCASTPVGFYWYDYWGQGTQVTVSS | low polyreactivity
